Laboratory results reported in US20240317816A1, “PEPTIDES FOR IMMUNOTHERAPY” (Genevive, Inc., priority 2021, published 2024).

What was measured:
[1] = biological target: T1, CCR7 (Homo sapiens, UniProt P32248); assay: SelectScreen agonist/antagonist assay, chemokine receptor expressing U2OS cells; type: cell-based
T1 construct: expressed in transfected cells
T1 sequence (P32248 25-378): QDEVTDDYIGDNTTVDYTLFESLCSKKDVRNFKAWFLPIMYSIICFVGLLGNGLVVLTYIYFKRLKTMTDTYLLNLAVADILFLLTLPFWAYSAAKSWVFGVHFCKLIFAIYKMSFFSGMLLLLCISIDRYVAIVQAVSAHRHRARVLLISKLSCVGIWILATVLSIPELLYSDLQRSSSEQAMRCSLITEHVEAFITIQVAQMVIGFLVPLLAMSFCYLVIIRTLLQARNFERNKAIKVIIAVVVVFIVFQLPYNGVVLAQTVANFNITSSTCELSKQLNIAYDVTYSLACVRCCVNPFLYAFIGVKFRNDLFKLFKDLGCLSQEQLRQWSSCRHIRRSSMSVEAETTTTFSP
Experimental: In agonist assays, chemokine receptor expressing U2OS cells are thawed and resuspended in Assay Media (DMEM, 1% dialyzed FBS, 25 mM HEPES pH 7.3, 0.1 mM NEAA, 100 U/mL/100 μg/mL Pen/Strep) to a concentration of 312,500 cells/mL. 4 μL of a 10× serial dilution of I-TAC (control agonist starting concentration, 500 nM) or compounds are added to appropriate wells of a 384-well TC-Treated assay plate. 32 μL of cell suspension (10,000 cells) is added to each well. 4 μL of Assay Media is added to all wells to bring the final assay volume to 40 μL. The plate is incubated for 16-24 hours at 37° C./5% CO2 in a humidified incubator. 8 μL of 1 μM Substrate+Solution D Loading Solution is added to each well and the plate is incubated for 2 hours at room temperature. The plate is read on a fluorescence plate reader.
In antagonist assays, CXCR3-bla U2OS cells were thawed and prepared as described above for the Agonist assay. 4 μL of 10× compounds or assay media was added to appropriate wells of a TC-Treated assay plate. 32 μL of cell suspension was added to the wells and pre-incubated at 37° C./5% CO2 in a humidified incubator with compounds and control antagonist titration for 30 minutes. 4 μL of 10× control agonist I-TAC at the pre-determined EC80 concentration is added to wells containing the control antagonist or compounds. […] The plate is read on a fluorescence plate reader.

[2] = biological target: T2, CXCR4 (Homo sapiens, UniProt P61073); assay: as above; type: cell-based
T2 construct: host or cells: U2OS

[3] = test system: RENCA cells; assay: RENCA murine adenocarcinoma model, anti-tumor activity; type: in vivo, BALB/c female mice; details: for tumor volume: 2.5 mg/kg peritumorally daily; for survival: initial dosing
Experimental: (§1) To determine anti-tumor activity of SG-3-00802 in vivo, the RENCA murine adenocarcinoma model was used. It is a syngeneic, standardized experimental model of metastatic RCC. Briefly, BALB/c female mice were inoculated subcutaneously with RENCA cells. Established tumors were treated daily with 2.5 mg/kg SG-3-00802 peritumorally, alone or in combination with intraperitoneal administration of 10 mg/kg anti-PD-1 antibody.
Additional studies were performed to test survival and tumor volume responses to a re-challenge event. In one study, mice were allocated into dosing groups when tumors reached ˜100 mm^3. During the initial dosing study, time 0 was the first day of seven days of dosing. […] Re-implantation was completed on day 39 after dosing completion. Treated mice were tumor free for >20 days before being re-challenge. […] Tumor volume and survival was monitored as previously described. In the re-challenge experiment, time 0 is day 10 after re-challenge dosing.
as §1, with “SG-3-05021” for “SG-3-00802”, “used.” for “used. It is a syngeneic, standardized experimental model of metastatic RCC.”

[4] = biological target: T1, CCR7; assay: gpcrMAX PathHunter β-Arrestin Assay; type: cell-based
Text: (§2) The PathHunter® β-Arrestin Assay monitored activation of a panel of 168 G-protein coupled receptors (GPCRs) with […] activation of the GPCR in agonist and antagonist mode.
(§3) where the test sample is the peptide, the vehicle control is DMSO (0% activity), and the control ligand is control compound (100% activity).
(§4) Peptides SG-3-00802 and SG-3-05021 were identified as an agonist, an antagonist, a PAM (Positive Allosteric Modulator), or an inverse-agonist. Agonist, antagonist, PAM, and inverse-agonist were identified according to the guidelines in Table 8. The basal activity/noise is a % activity of −20% to 20% for both agonist and antagonist modes. A PAM (Positive Allosteric Modulator) binds to a receptor, at a different site than the agonist, to change the receptor's response to the agonist. An inverse-Agonist is a binding partner with agonistic shutting down of basal activity in the cell. An antagonist antagonizes the activity of a particular binding partner.

[5] = biological target: T3, CXCR3 (Homo sapiens, UniProt P49682); assay: gpcrMAX PathHunter β-Arrestin Assay; type: cell-based
T3 sequence (P49682 1-368): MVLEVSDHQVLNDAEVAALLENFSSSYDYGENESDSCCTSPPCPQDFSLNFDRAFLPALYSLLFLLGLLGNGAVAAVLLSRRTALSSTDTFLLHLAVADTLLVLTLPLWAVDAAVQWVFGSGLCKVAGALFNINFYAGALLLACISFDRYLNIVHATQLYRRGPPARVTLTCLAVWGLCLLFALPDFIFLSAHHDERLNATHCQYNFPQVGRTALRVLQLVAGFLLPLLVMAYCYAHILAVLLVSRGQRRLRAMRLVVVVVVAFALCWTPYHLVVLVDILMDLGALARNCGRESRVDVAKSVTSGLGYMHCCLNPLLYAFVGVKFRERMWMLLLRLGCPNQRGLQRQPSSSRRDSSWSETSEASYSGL
Text: as §2, §3, §4

[6] = biological target: T2, CXCR4; assay: gpcrMAX PathHunter β-Arrestin Assay; type: cell-based
Text: as §2, §3, §4

[7] = in combination with 10 mg/kg i.p. anti-PD-1

T2 sequence (P61073 whole entry): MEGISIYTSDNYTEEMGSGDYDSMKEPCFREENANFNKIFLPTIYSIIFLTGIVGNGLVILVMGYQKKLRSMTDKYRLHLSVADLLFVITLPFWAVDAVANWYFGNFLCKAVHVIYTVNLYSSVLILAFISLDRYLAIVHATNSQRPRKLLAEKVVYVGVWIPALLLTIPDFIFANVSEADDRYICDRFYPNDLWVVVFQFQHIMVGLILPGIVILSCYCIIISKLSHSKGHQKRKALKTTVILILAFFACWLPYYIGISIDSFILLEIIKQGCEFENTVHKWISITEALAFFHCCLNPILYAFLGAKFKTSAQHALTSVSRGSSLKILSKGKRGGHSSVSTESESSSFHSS

For “MKVRPSVKPMCEKCKIIRRKGRVMVICENPKHKQRQG [SG-3-00802]”, the “SelectScreen Agonist Mode” value [1] was “weak agonistic activity and No”, the “SelectScreen Agonist Mode” value [2] was “no agonistic activity and No” and the “SelectScreen Antagonist Mode” value [2] was “moderate antagonistic activity and Yes”. The tumor volume ([3]; alone, vs PBS) was “robust decrease in tumor volume”, the tumor volume [3, 7] was “robust decrease in tumor volume” and the survival ([3]; in combination with anti-PD-1) was “increased survival”. For the same sequence, the survival ([3]; peptide alone) was “increased survival”, the “# of animals with complete tumor regression out of total animals per group (primary study)” value ([3]; primary study) was 2/12 and the Interpretation [4] was “No”. The “gpcrMAX Agonist Mode (% Agonist Activity)” value [4] was 0%, the “gpcrMAX Antagonist Mode (% Antagonist Activity)” value [4] was 0% and the “gpcrMAX Agonist Mode (% Agonist Activity)” value [5] was −4%. The “gpcrMAX Antagonist Mode (% Antagonist Activity)” value [5] was −32%, the “gpcrMAX Agonist Mode (% Agonist Activity)” value [6] was −14% and the “gpcrMAX Antagonist Mode (% Antagonist Activity)” value [6] was 99%.
In the case of “LGKTDWIEKYFKVKKEKIDKMQRFLQG (peptide for immunotherapy; SG-3-05021)”, the “SelectScreen Agonist Mode” value [1] was “no agonistic activity and No”, the “SelectScreen Agonist Mode” value [2] was “no agonistic activity and No” and the tumor volume ([3]; alone, vs PBS) was “decrease in tumor volume”. The tumor volume [3, 7] was “decrease in tumor volume”, the survival ([3]; in combination with anti-PD-1) was “survived a longer time” and the survival ([3]; peptide alone) was “survived a longer time”. For the same sequence, the “gpcrMAX Agonist Mode (% Agonist Activity)” value [4] was 0%, the “gpcrMAX Antagonist Mode (% Antagonist Activity)” value [4] was −18% and the “gpcrMAX Agonist Mode (% Agonist Activity)” value [5] was −4%. For the same sequence, the “gpcrMAX Antagonist Mode (% Antagonist Activity)” value [5] was −20%, the “gpcrMAX Agonist Mode (% Agonist Activity)” value [6] was 1% and the “gpcrMAX Antagonist Mode (% Antagonist Activity)” value [6] was 10%.
